Data: IntAct's records for PubMed 16709668

B1: "Peptide-N(4)-(N-acetyl-beta-glucosaminyl)asparagine amidase" (Mus musculus), Q9JI78 (parent)
chain: MASATLGSSSSSASPAVAELCQNTPETFLEASKLLLTYADNILRNPSDEKYRSIRIGNTAFSTRLLPVRGAVECLFEMGFEEGETHLIFPKKASVEQLQKIRDLIAIERSSRLDGSSKKVQFSQHPAAAKLPLEQSEDPAGLIRHSGNQTGQLPSLPSAPMVVGDSTILKVLQSNIQHVQLYENPVLQEKALTCIPVSELKRKAQEKLFRARKLDKGTNVSDEDFLLLELLHWFKEEFFRWVNNIVCSKCGGETRSRDEALLPNDDELKWGAKNVENHYCDACQLSNRFPRYNNPEKLLETRCGRCGEWANCFTLCCRALGFEARYVWDYTDHVWTEVYSPSQQRWLHCDACEDVCDKPLLYEIGWGKKLSYIIAFSKDEVVDVTWRYSCKHDEVMSRRTKVKEELLRETINGLNKQRQLSLSESRRKELLQRIIVELVEFISPKTPRPGELGGRVSGSLAWRVARGETGLERKEILFIPSENEKISKQFHLRYDIVRDRYIRVSDNNINISGWENGVWKMESIFRKVEKDWNMVYLARKEGSSFAYISWKFECGSAGLKVDTVSIRTSSQSFESGSVRWKLRSETAQVNLLGDKNLRSYNDFSGATEVTLEAELSRGDGDVAWQHTQLFRQSLNDSGENGLEIIITFNDL

Variants of: B1
Conditions: with tera_mouse Vcp

effect of a mutation on the interaction | Variant
disrupting interaction | N41P
disrupting interaction | G79A;F80A
